Consider four molecules from US20260028409A1 (Bristol-Myers Squibb, published 2026).

The target in assay [1] is T1, human C-C Motif Chemokine Receptor 8 (hCCR8) (human, UniProt P51685 1-355).
T1 construct: also called human CCR8
The assay is described as follows: FACS on hCCR8-overexpressing Raji cells, fluorescent secondary Ab. The procedure:
Four of the 6 mAbs bound to the hCCR8-expressing cells with an EC₅₀ below 1 nM (FIG. 2A; see Table 1) whereas no nonspecific binding was observed on the parental Raji cells (FIG. 2B).
FACS was used to evaluate the binding specificity of Abs binding to CCR8. […] Unbound dye was washed away and cells were plated into 96-well round bottom plates at a concentration of 5×10⁵ cells per well in FACS staining buffer (PBS w/o Ca/Mg, 2 mM EDTA, 0.2% BSA). Serial dilutions of mAbs that bind to an epitope other than an N-terminal epitope of CCR8 were added, starting at a concentration of 20 nM, and incubated on ice for 30 min. Unbound Abs were washed off and a detection secondary Ab was added and incubated for 30 min on ice. Additional washes were performed and Ab binding affinities were determined by measuring the fluorescence intensities of the secondary Abs on a LSRFortessa X-20 cytometer (BD Biosciences).

Assay [2] deals with T2, BSA-conjugated peptide corresponding to the N-terminal 35 amino acid residues of hCCR8 (human, two sulfated tyrosine residues (positions not stated for this peptide); conjugated to bovine serum albumin (BSA)).
T2 construct: Coated at 2 ug/ml on ELISA plates; also called BSA-conjugated CCR8 N-terminal peptide; sulfated N-terminal peptide of CCR8 conjugated to BSA
The assay is described as follows: ELISA, hybridoma supernatant on plate-coated BSA-conjugated sulfated N-terminal peptide (2 ug/ml). The procedure: To broadly characterize the epitopes of confirmed CCR8-specific Abs, hybridoma culture supernatants were screened by ELISA to measure binding to hCCR8 N-terminal peptides. Briefly, a BSA-conjugated peptide corresponding to the N-terminal 35 amino acid residues of hCCR8 (SEQ ID NO: 74; 2 μg/ml) representing the properly sulfated hCCR8 N-terminus was coated onto high-binding 96-well plates (Corning, Corning, NY) overnight at 4° C. Plates were blocked with BSA and washed, then 100 μl of culture supernatant were added for 30-60 min on a plate shaker. After washing, an appropriate anti-Fc secondary Ab conjugated to horseradish peroxidase (HRP) was added and left for 30-60 min. The plates were developed with ABTS or HRP substrate (SurModics, Eden Prairie, MN), and absorbance was measured at 405 or 650 nm on a Sunrise microplate reader (TECAN; Mannedorf, Switzerland).

In assay [3] the target is T1, human C-C Motif Chemokine Receptor 8 …. The assay is described as follows: cell-based or functional assay.
Assay [4] shares this target. The assay is described as follows: % receptor occupancy against 4A19 concentration, flow cytometry on CCR8^+ Tregs in healthy donor whole blood; the other of the two RO formats (direct/total or indirect/total). How it is done:
(§1) A head-to-head comparison of the two distinct RO assay formats was performed. Whole blood samples (180 μl) were pre-treated with various concentrations of the therapeutic mAb, mAb 4A19 (WO 2021/194942), mimicking different 4A19 dose treatment levels in subjects in the dose escalation arm of a Phase I clinical study (NCT04895709), and pre-incubated for 1 h at 37° C. Aliquots of the treated samples were transferred to 4° C. for periods of 24, 48 and 72h for specimen stability experiments.
(§2) After pre-incubation, tubes containing background samples were treated with a saturating concentration ([…]) of mAb 4A19, while other tubes (containing free or bound or FMO [fluorescence minus one] samples) were treated with PBS (equal volume as mAb 4A19) for 30 min at room temperature (RT). […]

Assay [5] shares this target. The assay is described as follows: % receptor occupancy against 4A19 concentration, flow cytometry on CCR8^+ Tregs in healthy donor whole blood; one of the two RO formats (direct/total or indirect/total). The procedure: as §1, §2

T1 sequence (P51685 whole entry): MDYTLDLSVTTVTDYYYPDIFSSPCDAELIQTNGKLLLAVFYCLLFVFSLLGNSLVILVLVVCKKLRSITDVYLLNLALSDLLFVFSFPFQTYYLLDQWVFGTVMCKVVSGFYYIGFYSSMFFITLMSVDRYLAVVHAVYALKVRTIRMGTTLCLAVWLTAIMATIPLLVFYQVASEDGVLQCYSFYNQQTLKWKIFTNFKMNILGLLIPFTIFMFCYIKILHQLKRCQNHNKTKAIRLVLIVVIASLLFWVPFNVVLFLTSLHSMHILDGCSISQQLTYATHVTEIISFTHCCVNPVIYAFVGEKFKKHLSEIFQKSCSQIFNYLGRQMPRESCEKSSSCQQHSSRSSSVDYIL
T2 sequence (peptide, as listed by the source): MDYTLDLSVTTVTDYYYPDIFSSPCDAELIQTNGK

B1: 21C17 mIgG2a (antibody, V domains shown)
VH: VVQLQQSGPVLVKPGASVKMSCAASGYTFTDNYINWVKQRHGKSLEWIGVINPYNGLTAYDQNFKGKATLTVDKSSSTAYMALNSLTSEASAVYYCARRYGGTPVRYFDVWGTGTTVTVSS
VL: DVVLTQTPLTLSVTIGQPASISCKSSQSLLDSSGKTYLNWLLQRPGQSPKRLIYLVSKLDSGVPDRFSGSGSGTDFTLKFSRVEAEDLGVYYCWQATHFPWSFGGGSKLEVKR
notes: Used unlabeled or conjugated to BV421; also called mAb 21C17; 21C17-mG2a
B1 came in with an EC50 in assay [1] of 0.0807 nM. Moreover, the binding result in assay [2] is recorded as “no binding”.

B2: 22B13 mIgG2a (antibody, V domains shown)
VH: B1 VH
VL: DIQMTQTASSLSASLGARVTISCRASQDISNYLNWYQQKPDGTFELLIYYTSRLHSGVPSRFSGSGSGTDYSLTITNLEQEDIATYFCQQGETLPWTFGGGTKLEIKR
notes: also called 22B13-mG2a
Consider B2, for which the midpoint of the response in assay [1], the EC50, lay at 0.0815 nM. The binding result in assay [2] is on record as “no binding”.

B3: mAb 4A19 (antibody, human IgG1, kappa, V domains shown)
VH: QVQLVQSGAEVKKPGASVKVSCKASGYTFTDSEMHWVRQATGQGLEWMGAIQPETGGTAYNQKFKARVTMTRDTSISTAYMELSSLRSEDTAVYYCARRRRNFDYWGQGTLVTVSS
VL: DIVMTQTPLSLSVTPGQPASISCRSSQSLFHSSGNTYLHWYLQKPGQPPQLLIYKVSNRFSGVPDRFSGSGSGTDFTLKISRVEAEDVGVYYCSQSTHVPFTFGQGTKLEIKR
notes: Therapeutic anti-hCCR8 mAb of WO 2021/194942; also called therapeutic anti-CCR8 mAb 4A19; A419
For B3, the “Maximum Depletion (%) of CCR8^+ Tregs Relative to KLH Isotype Control; Endometrial cancer” value in assay [3] came out at 69%. The “Maximum Depletion (%) of CCR8^+ Tregs Relative to KLH Isotype Control; Head and neck squamous cell carcinoma” value in assay [3] amounted to 25%. The EC50 in assay [4] is 0.023 nM; in assay [5], 0.022 nM.

B4: 23A14 hIgG1 (antibody, V domains shown)
VH: QVQLVESGGGVVQPGRSLRLSCAVSGLTFSSYAMHWVRQAPGKGLEWVAVISYDGNKKYNADSVKGRFTISRDNSKNTLYLQMNSLRAEDTAVYYCARAEGKGDYWGQGTLVTVSS
VL: EIVLTQSPATLSLSPGERATLSCRASQSVSSYLVWYQQKPGQAPRLLIYDASNRATGIPARFSGSGSGTDFTLTISSLEPEDFAVYYCQQRSNWPRTFGQGTKVEIKR
notes: Tested as hIgG1; also called 23A14-hG1
In assay [1], B4 yielded an EC50 of 0.112 nM. Besides, in assay [2], the binding result is reported as “no binding”.

As usually defined, the EC50 is the concentration at which the effect is half-maximal. High values mean a need for much substance, low ones an effect from little substance.
